# From patent US20060258586A1, “Compositions and uses of secreted polypeptide, Zsig98” (priority 2005, published 2006)
# Tests used:
# [1] = system: cisplatin- or syrup of ipecac-induced emesis; settings: 3 mg/kg i.p.; cited from earlier work
# [2] = target: the molecule itself; experiment: SDS PAGE of refolded synthetic peptide; self-association
# strips of ileum = experiment: guinea pig ileum organ bath contractility; settings: isolated ileum strips
# Procedure: In another model, male Hartley Guinea pigs at six weeks of age weighing approximately 0.5 kg are euthanized by carbon monoxide. Intestinal tissue is harvested as follows: 2-3 cm longitudinal sections of ileum 10 cm rostral of the cecum, and 2-3 cm longitudinal sections of duodenum, jejunum, and proximal and distal colon.
# Tissue is washed in Krebs Ringer's Bicarbonate buffer containing 118.2 mM NaCl, 4.6 mM KCl, 1.2 mm MgS04, 24.8 mM NaHC03, 1.2 mM KH2P04, 2.5 mM CaCl2 and 10 mM glucose. […] Isometric contractions are measured with a force displacement transducer and recorded on a chart recorder using Po-ne-mah Physiology Platform Software. […]
# Varying doses of Zsig98 from 1-400 ng/ml are tested for activity on strips of ileum. Muscle contractions are detected immediately after adding Zsig98 protein and are recorded at concentrations as low as 1 ng/ml or 100 picomolar. The EC 50 of this response is measured. […]
# In another model, male Hartley Guinea pigs at six weeks of age weighing approximately 0.5 kg are euthanized by carbon monoxide. […] Isometric contractions are measured with a force displacement transducer and recorded on a chart recorder using Po-ne-mah Physiology Platform Software. […] Muscle contractions are detected immediately after adding Zsig98 protein and are recorded at concentrations as low as 1 ng/ml or 100 picomolar. The EC 50 of this response is measured. […]
molecule,measurement,setting,value
COc1ccccc1CN[C@H]1CCCN[C@H]1c1ccccc1 (relative stereo) [(.+−.) cis-3-(2-methoxybenzylamino)-2-phenyl piperidine],anti-emetic activity,[1],exhibited anti-emetic activity
"Mature Zsig98, synthetic, made by native ligation and refolded (PEP05014 and PEP05015) (also called zsig98 peptide; synthetic zsig98) EPAGSAVPAQSRPCVDCHAFEFMQRALQDLRKTACSLDARTETLLLQAERRALCACWPAGH",binding result,[2],binds
"Zsig98: secreted polypeptide; mature form amino acids 35 to 95 of SEQ ID NO:2 (SEQ ID NO:18) (protein, listed as Homo sapiens, not fully specified) EPAGSAVPAQSRPCVDCHAFEFMQRALQDLRKTACSLDARTETLLLQAERRALCACWPAGH",activity in the presence of 5HT,strips of ileum,a secondary contraction is observed
